Reference: patent US20050118651A1 (NEURALAB, published 2005)

Target: T1, synthetic Aβ1-42 peptide (aggregated in the ELISAs) (human, UniProt P05067 672-713)
T1 construct: range 672-713; It was coated as aggregated peptide in the ELISAs; also called aggregated Aβ1-42; Aβ (1-42) aggregate
Assay: competitive Aβ 1-42 ELISA; competitor biotinylated m12A11Cγ2a at a fixed concentration

fold of IC50 against murine and chimeric 12A11: ≤ 2 fold (x IC50)
B1: humanized 12A11 version 1 (antibody, V domains shown)
VH: QVQLVESGGGVVQPGRSLRLSCAFSGFSLSTSGMSVGWIRQAPGKGLEWLAHIWWDDDKYYNPSLKSRLTISKDTSKNTVYLQMNSLRAEDTAVYYCARRTTTADYFAYWGQGTTVTVSS
VL: DVVMTQSPLSLPVTPGEPASISCRSSQSIVHSNGNTYLEWYLQKPGQSPQLLIYKVSNRFSGVPDRFSGSGSGTDFTLKISRVEAEDVGVYYCFQSSHVPLTFGQGTKLEIK
notes: Made by transient expression in COS cells; also called h12A11v1; 12A11v1
